# Reference: publication PMC6937325, “Tuning PFKFB3 Bisphosphatase Activity Through Allosteric Interference” (Scientific Reports, 2019)
# Columns and labels:
# [1] = target: T1, human inducible phospho-fructokinase bisphosphatase isoform 3, PFKFB3 (human), Q16875
# [2] = target: T1, human inducible phospho-fructokinase …; assay: MST; compound in MST buffer mixed 1:1 with 100 nM RED-NHS labeled recombinant PFKFB3, incubated 20 min at room temperature; Nanotemper
# T1 sequence (Q16875 whole entry, canonical isoform): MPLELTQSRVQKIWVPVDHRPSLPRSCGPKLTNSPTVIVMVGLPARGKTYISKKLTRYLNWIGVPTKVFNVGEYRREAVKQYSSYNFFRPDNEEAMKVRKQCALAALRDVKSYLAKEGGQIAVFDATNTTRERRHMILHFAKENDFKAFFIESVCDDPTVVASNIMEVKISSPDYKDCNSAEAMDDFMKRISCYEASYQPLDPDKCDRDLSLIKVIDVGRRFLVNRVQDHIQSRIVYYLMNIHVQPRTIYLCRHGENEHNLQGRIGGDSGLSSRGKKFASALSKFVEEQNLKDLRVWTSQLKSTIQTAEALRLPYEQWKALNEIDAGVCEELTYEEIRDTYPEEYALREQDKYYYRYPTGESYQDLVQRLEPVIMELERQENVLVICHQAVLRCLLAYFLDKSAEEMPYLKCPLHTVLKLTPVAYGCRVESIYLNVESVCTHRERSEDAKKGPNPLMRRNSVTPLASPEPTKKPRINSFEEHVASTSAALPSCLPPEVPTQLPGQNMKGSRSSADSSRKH
binder,measurement,setting,value
YSGFLT (modifications not checked) [compound 4],"PFKFB3 bisphosphatase velocity (LC-MS/MS of F6P) with compound 4, substrate F2,6BP 20-50 µM; not significantly different from enzyme alone (nmol/min of F6P per nmol of enzyme)",[1],0.14
same,Kd,[2],18 µM
SFLLR (modifications not checked) [compound 5],Kd,[2],44 µM
